Measured values reported in publication PMC10539519, “Computational remodeling of an enzyme conformational landscape for altered substrate selectivity” (Nature Communications, 2023).
Substitutions are numbered along the chain they refer to. Names and notes keep the numbering of the source.

T1: E. coli aspartate aminotransferase (AAT) (Escherichia coli, UniProt P00509)
T1 construct: gene aspC; full-length, N-terminal His-tag, expressed in E. coli BL21-Gold (DE3), Ni-NTA purified; 90 kDa homodimer, PLP-dependent
T1 sequence (P00509 1-396): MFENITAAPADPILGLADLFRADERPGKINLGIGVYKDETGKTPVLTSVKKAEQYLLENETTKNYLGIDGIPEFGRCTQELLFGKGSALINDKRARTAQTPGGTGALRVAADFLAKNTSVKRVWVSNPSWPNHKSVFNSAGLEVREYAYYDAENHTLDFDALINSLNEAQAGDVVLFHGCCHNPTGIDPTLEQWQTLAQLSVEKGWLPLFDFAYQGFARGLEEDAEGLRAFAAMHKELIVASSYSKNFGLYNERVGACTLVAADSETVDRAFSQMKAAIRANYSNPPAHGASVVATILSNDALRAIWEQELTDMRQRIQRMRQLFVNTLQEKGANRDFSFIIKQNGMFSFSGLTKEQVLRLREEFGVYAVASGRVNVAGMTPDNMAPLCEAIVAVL

B1: E. coli aspartate aminotransferase hexamutant HEX (enzyme)
chain: T1 sequence (P00509 1-396) with V35L, K37Y, T43I, N64L, T104S, N285S
modifications: imine bond between PLP and K246 (internal aldimine)
notes: aspartate aminotransferase (AAT), Escherichia coli, UniProt P00509, with six mutations; T104S and N285S are T109S and N297S in the numbering of PDB 1AHE and 1AHY; Mutant genes were ligated into pET-11a; the proteins were purified on Ni-NTA; source: E. coli BL21-Gold (DE3), purified (Ni-NTA, gel filtration)
B2: wild-type E. coli aspartate aminotransferase (enzyme)
chain: T1 sequence (P00509 1-396)
modifications: imine bond between PLP and K246 (internal aldimine)
notes: aspartate aminotransferase (AAT), Escherichia coli, UniProt P00509; Gene with N-terminal His-tag in pET-45b; also called AAT; WT; source: E. coli BL21-Gold (DE3), purified (Ni-NTA, gel filtration)
B3: E. coli aspartate aminotransferase (AAT) (Escherichia coli K-12) (protein)
chain: T1 sequence (P00509 1-396)
notes: full-length, N-terminal His-tag, expressed in E. coli BL21-Gold (DE3), Ni-NTA purified; 90 kDa homodimer, PLP-dependent
B4: E. coli aspartate aminotransferase (AAT) (Escherichia coli K-12; K37I/N64S/T43F/V35A) (protein)
chain: T1 sequence (P00509 1-396) with V35A, K37I, T43F, N64S
notes: as for B3
B5: E. coli aspartate aminotransferase (AAT) (Escherichia coli K-12; K37Y/N285S/N64L/T104S/T43I/V35L) (protein)
chain: T1 sequence (P00509 1-396) with V35L, K37Y, T43I, N64L, T104S, N285S
notes: as for B3
B6: E. coli aspartate aminotransferase (AAT) (Escherichia coli K-12; K37F/N64Y/T43I) (protein)
chain: T1 sequence (P00509 1-396) with K37F, T43I, N64Y
notes: as for B3
B7: E. coli aspartate aminotransferase (AAT) (Escherichia coli K-12; K37F/N64T/T43I) (protein)
chain: T1 sequence (P00509 1-396) with K37F, T43I, N64T
notes: as for B3
B8: E. coli aspartate aminotransferase (AAT) (Escherichia coli K-12; K37F/N64S/T43C) (protein)
chain: T1 sequence (P00509 1-396) with K37F, T43C, N64S
notes: as for B3

Target: the molecule itself
Experiment: crystal structure; X-ray crystallography, space group P 6_(3), two chains in the asymmetric unit; crystals grown with 20 mM maleate and ammonium sulfate, with or without soaking to remove maleate; data at 278 K (AIFS at 100 K; WT, HEX, VFIT also at 303 K)
Details: not given
In the case of B1, the “stoichiometry N” value is reported as 2.
In the case of B2, the “stoichiometry N” value is reported as 2.

These molecules were tested against T1, E. coli aspartate aminotransferase (AAT) (assay: room-temperature X-ray crystallography). Details: co-crystallised with 20 mM maleate, 278 K; contacts Arg280 and Arg374; closed conformation.
Type: binding
For O=C(O)/C=C\C(=O)O [maleate], the “room-temperature X-ray crystallography” value was “electrostatic interactions between maleate and the side chains of Arg280 and Arg374”.

Same assay, conditions: covalent internal aldimine with K246; 10 µM PLP in crystallisation
In the case of Cc1ncc(COP(=O)(O)O)c(C=O)c1O [pyridoxal phosphate], the “room-temperature X-ray crystallography” value is reported as “Restraints for PLP in its internal aldimine form were generated using phenix.elbow”.

The molecules below were run on N[C@@H](CC(=O)O)C(=O)O (assay: purified protein). Details: co-substrate α-ketoglutarate (fixed, 0.1563–1.25 mM range), 16 µM PLP, 5 mM NAD+, 100 mM potassium phosphate pH 8, 37 °C.
In the case of B3, the Km is reported as 0.21 ± 0.03 mM, the kcat is reported as 7.8 s⁻¹ and the kcat/Km is reported as 37000 ± 5000 M⁻¹ s⁻¹.
B4 was tested, and the Km was 0.32 ± 0.03 mM, the kcat was 2.42 s⁻¹ and the kcat/Km was 7600 M⁻¹ s⁻¹.
B5 gave a Km of 0.059 ± 0.007 mM, a kcat of 1.32 s⁻¹ and a kcat/Km of 22000 ± 3000 M⁻¹ s⁻¹.
Molecule B6 has a Km of 0.12 ± 0.01 mM, a kcat of 0.263 s⁻¹ and a kcat/Km of 2200 M⁻¹ s⁻¹.
B7 showed a Km of 0.027 ± 0.003 mM, a kcat of 0.9 s⁻¹ and a kcat/Km of 33000 ± 4000 M⁻¹ s⁻¹.
Molecule B8 has a Km of 0.068 ± 0.007 mM, a kcat of 6 s⁻¹ and a kcat/Km of 88000 ± 9000 M⁻¹ s⁻¹.

What follows are molecules tested on N[C@@H](Cc1ccccc1)C(=O)O (assay: purified protein). Details: co-substrate α-ketoglutarate (fixed, 0.1563–1.25 mM range), 16 µM PLP, 5 mM NAD+, 100 mM potassium phosphate pH 8, 37 °C.
Type: biochemical, Escherichia coli
B4 was tested, and the Km was 2.6 ± 0.2 mM, the kcat was 0.54 ± 0.01 s⁻¹ and the kcat/Km was 210 ± 20 M⁻¹ s⁻¹.
For B5, the Km was 0.27 ± 0.03 mM, the kcat was 9 ± 0.2 s⁻¹ and the kcat/Km was 33000 ± 4000 M⁻¹ s⁻¹.
B6 gave a Km of 0.42 ± 0.04 mM, a kcat of 17.3 ± 0.4 s⁻¹ and a kcat/Km of 41000 ± 4000 M⁻¹ s⁻¹.
With B7 the Km was 0.90 ± 0.06 mM, the kcat was 22.8 ± 0.4 s⁻¹ and the kcat/Km was 25000 ± 2000 M⁻¹ s⁻¹.
For B8, the Km was 12 ± 1 mM, the kcat was 87 ± 3 s⁻¹ and the kcat/Km was 7200 ± 700 M⁻¹ s⁻¹.

These molecules were tested on O=C(O)CCC(=O)C(=O)O (assay: purified protein). Details: α-ketoglutarate varied 0.002–20 mM, co-substrate 10–20 mM L-aspartate or L-phenylalanine, substrate inhibition, 16 µM PLP, pH 8, 37 °C.
Type: biochemical, Escherichia coli
In the case of B3, the Km is reported as 0.065 ± 0.005 mM and the kcat is reported as 12.2 ± 0.3 s–1.
